In patent US20130123349A1:

What was measured:
[1] = target: soluble collagen type I (pepsin-digested, non-fibrillar, triple helical; BD Biosciences) (human) (UniProt P02452); assay: SPR, saliva injected over immobilized collagen type I for 120 sec at 20 µl/min
[2] = target: soluble collagen type III (pepsin-digested, non-fibrillar; BD Biosciences) (human) (UniProt P02461); assay: SPR, saliva injected over immobilized collagen type III for 120 sec at 20 µl/min
[3] = target: collagen-related peptide (GPO)10, GCO-(GPO)10-GCOG-NH2, cross-linked; assay: SPR, Aegyptin over immobilized cross-linked (GPO)10 peptide, two-state model
[4] = target: collagen-related peptide (GPO)10, GCO-(GPO)10-GCOG-NH2, cross-linked; assay: SPR, Aegyptin over immobilized cross-linked (GPO)10 peptide, two-state model; Ka1
[5] = target: collagen-related peptide (GPO)10, GCO-(GPO)10-GCOG-NH2, cross-linked; assay: SPR, Aegyptin over immobilized cross-linked (GPO)10 peptide, two-state model; Kd1
[6] = target: collagen-related peptide (GPO)10, GCO-(GPO)10-GCOG-NH2, cross-linked; assay: SPR, Aegyptin over immobilized cross-linked (GPO)10, two-state model (text value; Table 4 prints 5.101 µM)

Chain of soluble collagen type III (pepsin-digested, non-fibrillar; BD Biosciences) (human) (P02461 168-1196): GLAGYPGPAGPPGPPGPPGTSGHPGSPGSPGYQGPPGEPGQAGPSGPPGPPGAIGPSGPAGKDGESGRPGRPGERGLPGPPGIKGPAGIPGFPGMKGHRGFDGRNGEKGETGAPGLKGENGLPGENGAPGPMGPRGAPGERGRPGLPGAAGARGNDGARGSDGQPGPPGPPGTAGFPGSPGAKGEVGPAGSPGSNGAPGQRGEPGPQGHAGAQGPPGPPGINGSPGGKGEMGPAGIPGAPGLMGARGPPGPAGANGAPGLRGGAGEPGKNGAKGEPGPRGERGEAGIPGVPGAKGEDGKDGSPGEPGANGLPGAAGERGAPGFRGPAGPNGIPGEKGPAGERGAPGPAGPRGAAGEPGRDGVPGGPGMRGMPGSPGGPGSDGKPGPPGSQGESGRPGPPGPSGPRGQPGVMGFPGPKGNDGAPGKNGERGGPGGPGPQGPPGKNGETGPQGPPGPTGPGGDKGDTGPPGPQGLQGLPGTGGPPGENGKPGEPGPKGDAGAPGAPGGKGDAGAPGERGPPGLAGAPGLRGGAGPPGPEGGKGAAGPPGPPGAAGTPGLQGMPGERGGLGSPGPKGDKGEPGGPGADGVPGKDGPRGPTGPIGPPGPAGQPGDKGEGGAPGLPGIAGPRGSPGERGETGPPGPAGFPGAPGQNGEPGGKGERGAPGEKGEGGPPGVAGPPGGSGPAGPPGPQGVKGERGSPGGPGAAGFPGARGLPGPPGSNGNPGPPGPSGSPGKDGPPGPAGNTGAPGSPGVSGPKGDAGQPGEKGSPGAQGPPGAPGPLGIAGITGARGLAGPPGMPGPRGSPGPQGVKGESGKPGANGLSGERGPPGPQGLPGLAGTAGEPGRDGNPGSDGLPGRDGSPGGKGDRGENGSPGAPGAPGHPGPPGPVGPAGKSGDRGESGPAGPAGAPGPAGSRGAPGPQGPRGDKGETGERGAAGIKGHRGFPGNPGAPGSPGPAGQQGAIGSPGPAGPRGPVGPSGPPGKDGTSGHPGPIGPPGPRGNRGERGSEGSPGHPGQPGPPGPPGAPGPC
Chain of soluble collagen type I (pepsin-digested, non-fibrillar, triple helical; BD Biosciences) (human) (P02452 179-1192 limits assumed, chain 1 of 2): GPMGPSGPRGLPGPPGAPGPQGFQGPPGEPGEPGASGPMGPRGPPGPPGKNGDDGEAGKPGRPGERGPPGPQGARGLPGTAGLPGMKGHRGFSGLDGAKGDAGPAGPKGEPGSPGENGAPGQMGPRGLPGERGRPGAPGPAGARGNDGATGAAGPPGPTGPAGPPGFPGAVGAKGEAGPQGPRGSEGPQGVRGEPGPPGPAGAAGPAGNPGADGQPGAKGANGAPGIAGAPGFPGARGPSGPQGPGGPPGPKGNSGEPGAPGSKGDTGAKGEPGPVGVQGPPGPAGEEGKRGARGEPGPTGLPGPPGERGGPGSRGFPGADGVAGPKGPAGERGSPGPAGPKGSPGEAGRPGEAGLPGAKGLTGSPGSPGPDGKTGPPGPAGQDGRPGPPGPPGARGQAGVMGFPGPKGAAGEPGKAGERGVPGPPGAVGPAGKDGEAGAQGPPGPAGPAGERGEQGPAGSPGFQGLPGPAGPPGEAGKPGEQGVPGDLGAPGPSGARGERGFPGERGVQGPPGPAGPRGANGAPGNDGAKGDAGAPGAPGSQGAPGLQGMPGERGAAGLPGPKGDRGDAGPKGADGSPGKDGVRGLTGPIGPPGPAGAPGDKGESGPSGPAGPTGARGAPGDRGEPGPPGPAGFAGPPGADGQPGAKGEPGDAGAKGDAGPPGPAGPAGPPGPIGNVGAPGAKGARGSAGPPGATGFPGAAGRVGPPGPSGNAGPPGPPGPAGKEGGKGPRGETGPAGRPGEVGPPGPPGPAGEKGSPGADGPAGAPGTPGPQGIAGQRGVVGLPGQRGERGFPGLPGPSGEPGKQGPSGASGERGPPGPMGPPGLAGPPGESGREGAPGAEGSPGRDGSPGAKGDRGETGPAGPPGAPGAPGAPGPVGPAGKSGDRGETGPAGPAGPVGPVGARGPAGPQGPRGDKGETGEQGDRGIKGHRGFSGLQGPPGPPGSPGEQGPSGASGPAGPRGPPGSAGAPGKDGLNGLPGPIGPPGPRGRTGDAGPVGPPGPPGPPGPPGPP
Chain of soluble collagen type I (pepsin-digested, non-fibrillar, triple helical; BD Biosciences) (human) (P08123 91-1104 limits assumed, chain 2 of 2, further chain): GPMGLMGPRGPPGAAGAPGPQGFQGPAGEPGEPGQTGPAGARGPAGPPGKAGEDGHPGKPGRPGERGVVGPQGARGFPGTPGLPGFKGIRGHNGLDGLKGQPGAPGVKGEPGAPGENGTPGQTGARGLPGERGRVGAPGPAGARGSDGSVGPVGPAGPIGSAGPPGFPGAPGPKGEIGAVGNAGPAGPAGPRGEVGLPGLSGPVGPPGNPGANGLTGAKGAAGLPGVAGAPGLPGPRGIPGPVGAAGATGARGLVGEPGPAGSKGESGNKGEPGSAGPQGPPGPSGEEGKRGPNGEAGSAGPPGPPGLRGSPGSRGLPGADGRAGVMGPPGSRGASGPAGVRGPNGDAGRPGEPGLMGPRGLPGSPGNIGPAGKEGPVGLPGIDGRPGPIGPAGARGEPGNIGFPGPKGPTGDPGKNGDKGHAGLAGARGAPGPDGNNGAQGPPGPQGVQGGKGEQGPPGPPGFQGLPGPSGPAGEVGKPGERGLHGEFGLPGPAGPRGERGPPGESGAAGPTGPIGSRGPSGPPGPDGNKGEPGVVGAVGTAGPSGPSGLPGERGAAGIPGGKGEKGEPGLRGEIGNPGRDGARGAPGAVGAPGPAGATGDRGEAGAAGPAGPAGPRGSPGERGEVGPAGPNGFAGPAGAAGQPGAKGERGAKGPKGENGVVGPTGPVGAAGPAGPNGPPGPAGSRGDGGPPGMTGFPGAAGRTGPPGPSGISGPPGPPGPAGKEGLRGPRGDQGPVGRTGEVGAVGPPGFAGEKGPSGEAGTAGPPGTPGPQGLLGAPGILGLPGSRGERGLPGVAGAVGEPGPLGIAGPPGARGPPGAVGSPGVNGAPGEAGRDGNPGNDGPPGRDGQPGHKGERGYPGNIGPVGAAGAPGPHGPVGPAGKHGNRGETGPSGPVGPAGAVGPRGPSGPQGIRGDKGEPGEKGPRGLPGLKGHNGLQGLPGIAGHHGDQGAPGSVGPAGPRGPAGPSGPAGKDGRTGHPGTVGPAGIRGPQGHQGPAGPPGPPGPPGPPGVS

| Substance | Response (RU) [1] | Response (RU) [2] | Kd [3] | Kd2 (two-state model) [3] | second Ka of the two-state model [3] | kon [4] | koff [5] | Kd [6] |
| --- | --- | --- | --- | --- | --- | --- | --- | --- |
| Ae. aegypti saliva (0.07 µg/ml) | 556 RU | 348 RU |  |  |  |  |  |  |
| recombinant Aegyptin (from UniProt O01949 20-273) |  |  | 5.1 µM | 0.0289 s⁻¹ | 0.00402 M⁻¹ s⁻¹ | 206000 M⁻¹ s⁻¹ | 1.19 s⁻¹ | 5.01 µM |
